For assay [1], the target named is fluorescein-labelled Pdcd4 N-terminal domain (residues 1-156) (human) (UniProt Q53EL6). Nature of the assay: fluorescence polarisation; fluorescence anisotropy binding assay: 20 nM FL-Pdcd4-NTD, 40S titrated, with or without eIFs (1 uM eIFs 1, 1A, 5, 550 nM eIF2-TC and eIF3); 20 mM Tris-acetate pH 7.5, 70 mM KCl, 2 mM MgCl2, 0.1 mM spermidine, 1 mM DTT, 10% glycerol, 0.1 mg/ml BSA, 0.5 mM ATP-Mg; 37 C 10 min, then over 20 min at room temperature; fraction bound fitted with a quadratic equation. In general terms: Polarisation of emitted light reports the rotation of a fluorescent probe.

Assay [2] has as its target 40S small ribosomal subunit (salt-washed) (human) (UniProt P23396). Put plainly: fluorescence polarisation; anisotropy competition: 20 nM FL-Pdcd4-NTD + 50 nM 40S competed off by unlabeled Pdcd4 or its variants; 37 °C 10 min, then over 20 min at room temperature; buffer of the native gel assay.
The target is the same in assay [3]. Nature of the assay: fluorescence polarisation; fluorescence anisotropy competition assay in solution: 20 nM FL-Pdcd4-NTD + 50 nM 40S competed off by 0-1000 nM unlabeled Pdcd4 or its variants; Kd of the labeled NTD set to 5 nM; same buffer as the native gel assay; 10 min at 37 C, then over 20 min at room temperature.
The target is the same in assay [4]. Nature of the assay: fluorescence polarisation; anisotropy binding: 20 nM FL-Pdcd4-NTD with various amounts of 40S in the presence of saturating eIF1 and eIF1A.
The target of assay [5] is 43S pre-initiation complex (40S + eIFs 1, 1A, 5, 3j, eIF2-TC and eIF3) (human) (UniProt P23396). Nature of the assay: fluorescence polarisation; anisotropy binding: 20 nM FL-Pdcd4-NTD with various amounts of 40S, in the absence or presence of 43S components (1 μM eIFs 1, 1A, 5, 550 nM eIF2-TC and eIF3); buffer of the native gel assay.
Assay [6] has the same target. Put plainly: native gel or EMSA; 100 nM fluorescein-labeled Pdcd4 with 250 nM 40S, 43S or 48S; 37 °C 10 min; 20 mM Tris-acetate pH 7.5, 70 mM KCl, 2 mM MgCl2, 0.1 mM spermidine, 1 mM DTT, 10% glycerol, 0.1 mg/ml BSA, 0.5 mM ATP-Mg; 1% agarose gel in THEM buffer, 4 °C.

Values joined by “and” are separate entries in the source; they are usually repeats but may differ in a detail not shown here. Equal entries are not always repeated.

Data on ten substances can be found in PMC11310195.

The Kd is a measure of binding affinity in units of concentration. A low value points to higher affinity. By Ki is commonly meant the equilibrium dissociation constant of an inhibitor or competing ligand from its target.

With “40S subunit with saturating eIF1 and eIF1A (from UniProt P23396 1-243; P41567 1-113; P47813 1-144) (complex)”, in assay [1], the Kd was determined as 0.071 µM. “43S pre-initiation complex (40S with eIF1, eIF1A, eIF5, eIF2 ternary complex and eIF3) (from UniProt P23396 1-243; P41567 1-113; P47813 1-144; P55010 1-431; P55884 158-814; O75821 1-320; Q13347 1-325; O75822 1-258)” showed a Kd in assay [1] of 3 µM. Regarding “Pdcd4 (programmed cell death 4), wild type, residues 1-469 (from UniProt Q53EL6 1-469) (natural protein)”, the Ki in assay [2] turned out to be 0.023 µM. As to “Pdcd4 K114A/K115A (from UniProt Q53EL6 1-469) (natural protein)”, the Ki in assay [3] was 1.6 µM and 1.38 µM and 1.49 µM. On the same count and under the same terms, in the case of “Pdcd4 V123A/W124A (from UniProt Q53EL6 1-469) (natural protein)” it was 0.864 µM and 0.791 µM and 0.828 µM.

For the substance “Pdcd4-NTD (residues 1-156), unlabeled (from UniProt Q53EL6 1-156) (domain or fragment)”, the Ki in assay [2] is 0.021 µM; in assay [3], 0.0212 µM and 0.0203 µM and 0.0201 µM. For “fluorescein-labeled Pdcd4-NTD (FL-Pdcd4-NTD, residues 1-156) (from UniProt Q53EL6 1-156) (domain or fragment)”, the fold reduction in affinity (against the 40S alone) is > 10 fold in assay [4] and > 100 fold in assay [5]. In assay [6], the percent binding compared to the 40S lane was < 20%. Regarding “fluorescently modified recombinant Pdcd4 (FL-Pdcd4), full length (from UniProt Q53EL6 1-469) (natural protein)”, in assay [6], the percent binding compared to the 40S lane is < 20%. For the substance “human 40S small ribosomal subunit (from UniProt P23396 1-243) (complex)”, the Kd in assay [1] was 0.005 µM. As for “wild-type Pdcd4 (residues 1-469), unlabeled (from UniProt Q53EL6 1-469) (natural protein)”, the Ki in assay [3] is 0.0247 µM and 0.021 µM and 0.0233 µM.
